# Experiment: soluble on expression in E. coli; label from the status in PepcDB or PDB records
row,Sequence,soluble on expression in E. coli
1,MGSDKIHHHHHHMSYELARVPRGEHHFHSVRVRTGDVLGLIEKTAFFELDDTLFVYPFYQRFSYQVNERHQEDGVSGSSPIHQHHSSVAASVRNYQPGDRFAALDWKTSARRSQLMTKEFEPSRSKNLFLLMDRFSSDAFEEVVSVTASILHSVLKNGAGAGLASIGKEKNIFPIQEGDQHFKHMLRHLAIAHCDAADPISRYAREELGKPSVRQADQVVVTGQLTEDMLHLAEIGGGRVTVILAKEKDAELSQAENVMIERMMKRQIRVRIMRGGRVSRVV,not soluble
2,MGSDKIHHHHHHMTALRQDIDPNGLLEYSVVYTDRALNHMSKAFQEVMNDLLSNLKTVYNAEAAVIIPGSGTYGMEAVARQLTIDEDCLIIRNGWFSYRWTQILEKGKFAKSSTVLTAERTEDTEAPKPFAPVDIETAVAKIKEDKSAIVYAPHVETSSGIILSEEYIKALSEAVHSVGGLLVIDCIASGCVWLDMKELGIDVLISAPQKGWSSTPCAGLVMLSAAAIKKVESTESNCFSLDLKQWLTIMRAYENGGHAYHATMPTDSLRQFRDAILEAKEIGFDILRDAQWELGNRVRKVLTDKGIESVAAEGFEAPGVVVSYTERDDMHKGSAFAEAGLQIAAGVPLKVGEPDNFKTFRLGLFGLDKLTDIDGTVERFEKALDEVLAK,not soluble
3,MGSDKIHHHHHHMTDNFFHGVRVRESTDLVTAINDIDSTVIGIVAIADDADPEMFPLNTPVLLTRVNNALGKAGKTGSLYKSLKAISDQCSTKVIVVRVAAATDGDDNQTQSQLVIGGTAADGSYTGMYAFLTAEQKTGYRPRILAVPDHDTIEVATQLGVIAQKLRAFFYAYCHNCETIAEAKAYRETLNYREVMPIWPNFIAYNTLTGENEEFPAVAYACGLRALIDNTQGWHKSLSNVAVNNVLGISKDVFWALQAEDSDANELNAHEITTLIKRDGFRFWGNRTTDPDKEYIFEVYTRTAQILADSIAEAQFTTVDKPMTPGNVKDVVSGINAKLQALVTAGKLIGAACWFDIVDNPTTGLRQGKCIVRYNYTPVPPLEDLSLYQTFTDQYFETAFSSLGGA,not soluble
4,MGSDKIHHHHHHMTDNIKSRRSAVPGCAIHCHDCSMGTLCIPFTLNNNELDQLDDIIERKKPIQKGEQIFKSGDSLKSLYAIRSGTIKSYTITEQGDEQITGFHLAGDVIGFDGIHSQIHQSFAQALETSMVCEIPFDTLDELSGTMPKLRQQIMRLMSNEIQSDQEMILLLSKKNAEERLAAFISNLASRFGSRGFSPKEFRLTMTRGDIGNYLGLTVETISRLLGRFQKAELIEVKGKYITIVDFDSLNKLAGNNKIGR,not soluble
5,MGSDKIHHHHHHMTDWHFYEPARGHALRHDPLNAIVAPRPIGWISTISSDGVRNLAPYSFFNLFSYKPPIVGFCSLGAKDSLANARDTGEFVWNLATRPLVEAMNASAAMVPAHVDEFELAKLETLPSAKVRPARVAASPVQFECVVTQIVQLEAQGGAALPAWLVLGEAVAIHIDRQLITNGVYQTAQARPILRGGGPADYFEIGAGQLFTLERPGD,not soluble
6,MGSDKIHHHHHHMTEAHNACCHPSGTAAGHHGAGKASTDMMDAVDRRLLDIIQTGFPIEPRPYAVLGETLGITECEALARVRALRERKVIRRLGANFDSWKLGFRSTLCAAKVPEDRIDAFVAEVNRHVNVTHNYLRNHEYNIWFTCICPSWEQVCSLLDGITERTGIPILNLPATKLYKIRVDFRMD,not soluble
7,MGSDKIHHHHHHMTERIRIGISSCLLGNKVRHDGGHKFDSYIVNVLGRYLDFVPVCPEVECGLPTPREPMRLAGDVHSPRLMTSKTWQDKTEQMQTWADSKVRELEGQGLCGFIFKRGSPSSGMERVKVYPFTDPREVKNVGAPVLKGSGLFARTFMEHFPLLPVEEEGRLNDPVLRENFIERLFVVRRWYDLLESGMAPGAVVEFHTRHKLLLLAHSTQKYREMGRLVAAVREYSPEQFRTEYRRLLMEALSVRATAGRHANVQQHIMGYFRRQLTTDEKQELVEIIDRYRNGLVPLIVPVTMLNHYVRKYGDEYLAGQYYLNPHPVELKLRNHI,not soluble
8,MGSDKIHHHHHHMTESEKQKLGKTLWAIADQLRGAMNADDFRDYMLAFLFLRYLSDNYEAAAQKELGTDYPDLPSDVLRQTGVNTPLQAWYEENLDDVSEFEKQMRRKVHYVIEPQYLWGNIAEMARTQDDELLHTLQKGFKYIEEESFASTFRGLFSEINLASDKLGKTYTERNARLCKIIAEIAKGLGQFSTDSDTLGDAYEYLIGQFAAGSGKKAGEFYTPQRISDILSAIVTLDSQEPATGKRSHLDSVFDFACGSGSLLLNVRRLMGPHGIGKIYGQEKNITTYNLARMNMLLHGVKDSEFEIFHGDTLLNEWDMLRETNPAKMPKFDAVVANPPFSYRWEPSEALGEDVRFKNYGLAPKSAADFAFLLHGFHFLKQDGVMAIILPHGVLFRGGAEARIRTKLLKDGHIDTVIGLPANLFFSTGIPVCILVLKKCKKPDDVLFINAAEHFERGKRQNQLLPEHIDKIIDTYRYRKEEPRYSRRVSMEEIEKNDFNLNISRYVSTAITEEEVDLNAVIGQLKAIEQEIYQAKSKHNEFLKELGLPLLP,not soluble
9,MGSDKIHHHHHHMTGRNILTESESDRGRVLFSPAFRRLQQKAQVFSMEPNAAVRSRLTHSFEVSQIGRYIADLLSEKLGIATEQQAGALVNFVETACLMHDIGNPPFGHFGEEAIKKWFEDNGERCLRLSIGRPKPSDGACPDQAKVRDALVDFADFDGNPQGLRIVARLQWNTDEFGLNLTKTSLASFMKYIRMAGGEKSGIFTKKAGYFTTERDLVESVWREFGYELPQRFPLAYIMEAADDIAYCISDLEDSFEKDIVRPDDALSYVEEQYERHEFEDGDPKHVDIRRAIRQMRAKERESGGEFTFTDFRTSLNNVIVNYVADRYVENHSKILDGTLESLIPGNEPPGAILNAIRKFCREHVYTHESVQRVELAGYNAIRGLLEQCSSLLCISAEGFRAARANEKQDAKGQALVLEPKLLRLFPEKYIKVYDYHLKQAGGDEADPFLEWTYRAHLIVDFISGMTDDFAMTTYRTLAGMRL,not soluble
10,MGSDKIHHHHHHMTGTANYVEFEPTRMGLYEASIRVKHECPYRRISERYPDLTIREWPLSDCQVLEITTETTPTDELLDEINEIGTVLYESADDNGYHVVTQSCLCSLEDSVIDRFEEHNCLYQSPTIYRQGWEHYTVVAFDSEDVRELLDSLRSDREIELLSKTSISETQIPHSMLAPANQLFEDITDRQLAALQLALESGYYEQPRKTSLRDLAERTAVARSTYEEHLRKAENKLLTNAGQFLRLVTATSTTNPLGVESGRRTEQTAD,not soluble
11,MGSDKIHHHHHHMTHDDVIQAIVNTIRDVPGIRALFLSGSYGNGLADEYSDIDFVLVSEDGATDAVAEAWRNAVEKTGEIVLWWDRTTVPVLINAITEDWTRTDVIILKPDQMGRQTKDALKPLFDHDNIYDTLKDAAPKPGPDLKRFRYEVEEFIRILGLLQLAVGREEYINGVLGVSLLRSKLVNLLIEETDAPNRGGILHLNRLITEDQKQVLISLPPAVPERDAMISAHLAYAAAYLPRARRRAERLGMEWPERFEAVTWSRLEKTLSIRRPYD,not soluble
12,MGSDKIHHHHHHMTHDTSPIHRTIELPDELLVGAIDTHIHSGPWLKSCPGRLDPFQIAEQAKQAGMRAVVFYDHTFGNSAGTSWMVRRSVPGIDVYGGIILTTNFGGMNPRAVKTALHYGDGAKFVHFGTHCTYHMASREGSYVDGKPVPFKDLYPKFAEQELARAIRIPLDGPVPGELEEILGLVAGHPDVYLNTGHISPGEVMRLAELAERFGIRKMIVAHPARAWLSTAQQKDLSARGFFLEGSVSDWLFHRGLPRTNYYVEREYADEIAGIANEPQFQGVVQWASQLREVGLANVVLGTDYGIGSCPAPREGMRLLISTLLDLQFSLAEIELLTRRNPARLLGLE,not soluble
13,MGSDKIHHHHHHMTITPHTLAVWADDQRAGLLDRSIDQHQYVFAYDPAAESPSAQVSLTMPVRLESWASRDLHPIFQMNLPEGALLEAIRRTVSKLIGEDDLTILRVTGGNQVGRNRFSLAADPAPGIVETKESLDELLSYPDTEELFNDLVAKYALRSGVSGVQPKVMLDATERGTAAVGGYIVKSWGSEYPQLAANEFFCMTAAKRAGLSVPEFHLSENGGLFVMKRFDLGERGEPLGFEDICSLQALATTRKYSSTYERVARTIKDFVSPAALLVAREQFFASLVLSCMVRNGDAHLKNFGVLYDRPGQLVQLAPVYDVVTTTAYIPKDVPALSLFGTKKWWSRRALERFAVSHLSLPVGRVGQILEKVAEAVTDTRGIVSAYMVEHPEYREVGNLQLASWEVGVANLVLI,not soluble
14,MGSDKIHHHHHHMTIVSAFLLPGSPLPQLRPDITPWGRIREGLSRAGKALAESKPDCVLVYSTQWFAVLDQLWITRARSTGVHVDENWHEFGEQAFDIHSDCALAQRCVDACNAAGIKTRGVDYDQFPIDTGTITATTLMGFGSASLPVVIAANNLYHSAEQTEQLGAIASAALQDKRAAVLGIGGLSNSAFRENIDLEKDHILSEADDKWNQRVLALMESGDIEAIRAILPQYSTEARPDMGLKHFYWLLGAMNASFKKATVHEYAPLYGSGGAIVQFDVQ,not soluble
15,MGSDKIHHHHHHMTKFSVYIGIDWANDKHDVCVQVANSSARKFEVIKHSPKSINEWITSLHKQYKGQIAVAIELSKGPIVYALQKFDFITIHPVNTSMLAQYRKAFSPSGAKDDPTDAELALDLMLRYPNKIKALKMDSESVRKLTYLVEQRRKLVDDKRRFSNRLIITLKEYYPHLLDWFSHRGSGIFCDFITRWPNLQKLKRARADTLKKFFGSYPGRTAAYSVKRIQSISEAEPLTLDNAVIESHQLLAVALANQLLVAVKVIKVFDREISELFNALPDAELYKSLPGTGPCLAPRLLVAIGENRSRFNSASEIQMYAVIAPVTVRSGQKSWIHWRYQCSKFTRQSFIEWATKSIRQSYWAEIYYQQQREKGNTHQAAVRSLAFKWIRIIYRCWKTKEPYNEAKYLKALSDRNSPLLFKEKAC,not soluble
16,MGSDKIHHHHHHMTLQQLRQVLTIAESNSMNEAAKKLFVSQPNLSATVREVEEELGITVFMRNNRGITVTAEGEEFLGYAKQVVEQYHLLENRYLNVESKKKFSVSMQHYSFAVKAFVQLAKEVGMDEYEFAVHETKTKEVIDNVKNLKSEIGVLYLSDFNEKVLRKLFKECDIEFKELFTCNTYVYLWKKHPLAGQKEITLDDLQEYPCLTFEQGVNNSFYYAEEMMSTYEYKRVIKADDRATMLNLMVGLNGFTLCSGIISEDLNGDDYAAIPLKESEKMHIGYIKHKGTKLSKLGEIYIDALKNYENKVL,not soluble
17,MGSDKIHHHHHHMTLRERRQKHKAQFRQEILDASRELFSQIGYERFSMRKLAAKIEHSPTTIYLYFRDKDDLLYSLCEELFAKLFQSYQDISRGENDPRQVLRLCLLRYIEFGLANPGHYKVAFFTSPVVYGSPTEFLQKDSMGRRTYFHILRTVEETMAAGMLRPMDADLLAQTVWVAAHGVVTSRIYSADFPMVDAVLQAETLVDGLLAGFSVKNFFGTNIYTVN,not soluble
18,MGSDKIHHHHHHMTMTDERPVLVATEADDITADMVITELNRRDVPVVRFNLADIGEGLTVSARFGTCPAPVVGQVRTSSRTADLTRVRSVYWRRPEWPSFPHLSPDDSRFAAAQVRYGLGGTLYALDHPLWVNHPLRIAAADYKPAQLALAQQLGFTIPTTLVTNDPAEAREFIRTQGDVIFKTLRWTPYTRDGVPVTGWADPVTADEIDDNVRITPHLFQARVDKVTDLRVLIVGQHTFAVRIDSELLDWRRDYSVLTYTVEHLPDSVDKALHAYLDRLELVSGSFDLTVDRAGVYWWLELNPNGQWGWLEKETGLPMSAAFADLLVQGDRQ,not soluble
19,MGSDKIHHHHHHMTMVLDQVVPFGRSMDEYIKIFNLTDADLNKKIIGIGDGPASFNAEMTRQGKSVISVDPLYQFSGDEILQRFNEVLDNIINQVKATSNNWVWSYHKSPDDLRHNRVKVIREFLSDYENGKKSNRYIVDEFPKLKFKTQEFEIALCSHLLFLYSDHLDYDFHLNSIGEMLRIAKEIRIFPLITLMWKHSQHLDEIVKHYTSIGYKIDIENVEYELQPGGNKMLKITRDFYKNHNL,not soluble
